Experimental data reported in patent US20050158769.

Key:
[1] = tested on: T1, MseI restriction endonuclease (R.MseI) (Micrococcus sp. NEB#446); assay: cleavage_in_vitro; conditions: NEBuffer 2 (50 mM NaCl, 10 mM MgCl2, 10 mM Tris-HCl, 1 mM DTT, pH 7.9) + BSA, 37 C; 1 unit digests 1 ug lambda DNA in 1 h
T1 sequence: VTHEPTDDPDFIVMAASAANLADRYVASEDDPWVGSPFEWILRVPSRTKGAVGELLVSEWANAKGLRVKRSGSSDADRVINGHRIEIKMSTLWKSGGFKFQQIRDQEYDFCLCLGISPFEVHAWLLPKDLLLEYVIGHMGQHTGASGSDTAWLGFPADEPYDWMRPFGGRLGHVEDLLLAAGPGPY

[2] = tested on: T2, MseI restriction endonuclease (native) (Micrococcus sp. NEB#446); assay: cleavage_in_vitro; conditions: native enzyme; substrate inferred from the unit assay
T2 sequence: T1 sequence

lambda DNA
activity (units total purified) [1]: 2.6e+07 | activity (units total purified (approx.)) [2]: 10000
